Data: the domain aggregation screens of Martell et al. (2025)

Test: soluble fraction after stress (log2 fold change); higher = more stays soluble; pooled small domains, quantitative proteomics
Settings: stress: 75 degC
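Also: 20 min heating vs room temperature control held 20 min.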

Row | Sequence | soluble fraction (log2)
1 | HMSLPNNLIEQLQDPEPKARRRAVRRLAATRDPSAIPLLRNVYLQDGDDRVRDAAEAALVQFRAMQHN | -0.112
2 | HMSLPTYVQISEAIARRITAGQWLDGERLPPERTMAAEFGVAVGTLRKALSRLQDQKLLRRLQGSGNYINI | -1.67
3 | HMSLREKNKARTRTAILNAARDLAKQGQWDAITTRQIADAAGVSYQTLYNYYPSKASILVEMLL | -2.03
4 | HMSLSDDIAQTLRQLGFDRDVSETLANDVLPAMPTRQDVIDLLGTLGIEKHVAADFANFVVLN | -0.964
5 | HMSLSEYLSAPVLEGQRNHALFSAVMQAREQGWDEWQIRTTIGAKAEADGLRHAEIAATIRSAMSREITP | -0.314
6 | HMSLSIKINHESVGLRLDQFLQEHYYKQQSRSYVQHAIKEGYILVNGQSVKNGYMLKLDDLIELEAI | -4.5
7 | HMSLSNMIGKNIQWTHVTKTKDAEGNPKTNSETFAGNVRGVKVLNGKPMVVAQDAKGKLHEVEVSEIEAIA | 0.0953
8 | HMSLTEDELFHALTIYANREGINIGATELKYLLTHYARNLGKLIELINQVSQAATMQKKPITIPLIKHS | -0.411
9 | HMSLTGFYNLTFKQADRLSVIDEAGEEVYKQAIAMGSTTKTIDLSALNAGVYFIRIYNGEVIAQEKIVLN | -0.933
10 | HMSLTYTGKFILNHNNIDQSSFNINIYLVNKQTIIQITKPFYGNVLNIKFNEENDLIISPKQFS | -0.369
11 | HMSMDPYTVLGVNKSSTDSQIKNAYKNLAKQHHPDRGGNEAKFKEISTAYEQIKTAEKRQQYDMSQQF | 0.604
12 | HMSMFAQQLKDLRKKIPGLTQTDMAKKLGIAKTTYASYEQGKRTPDIETQNKIADFFNVSLDYLHG | -0.302
13 | HMSMFSEILRTLRKAKGLTQRELAGHLGVTQQMVAKWEKGQSTPGPDQLTRMAELLEVSTDTLLGR | -0.366
14 | HMSMNSWFVEKERDNTRIDKFLNEQMADISRSYIQKLIKDDLVTVDLRPVKANYKVKEGDRVEVTLPEPV | 0.000708
15 | HMSMPTITLQHYKRGSHYYASIIETFRDPVTRKNSSRTLEALGDISEKMKEDPNYLQSLKDRVKALRSD | -0.899
16 | HMSMSLQFLSRRIRLQREKRGLKQHDIAHALQISPQAVSKWERGENAPDIALLRPLAGLLGVSIDWLMGGD | -3.27
17 | HMSNEEEIEGLVSKVLDNNPEIVERIRSGEDKLISYLVGEVMKQSSSSLNPGIVKEIIVNKTI | 0.091
18 | HMSNEITVPDLSGMSLEELETILSDRSLSYEIIDSIYNSTAKKGTVSSQDPLPDAKVKSGRTIYITVVSKL | -1.85
19 | HMSNENIDQDELQAIIQKVLASNQDAVAKYKAGKTAVIGFLIGQVMRQLNKKIDVALAKKTLLVFLEK | -1.42

Row | Sequence | soluble fraction (log2)
20 | HMSNETKSAILNFAEKHHDFNIDDLFESLSKSMDINRSSLLWHLFKLVNSNVLIRTGRGMYAKV | -2.62
21 | HMSNEVSYSDFVRSVESDEVNAVTLDGEQIRFVGNDGQTYSVIKPADAQITQLLIDNNVTVRAEQQ | 0.123
22 | HMSNEYLMPNLIGMSWDEAKSKYSQYMTLVPEQEWSEVTKDQIFDQEYPEGRKVKIGTEVTVKVSMGI | -0.654
23 | HMSNFGALLRMRRLEAGLSYRGLAEQSGLARATLVNLEQGLTKPSPLTMRRLASVKALRLTEL | -3.17
24 | HMSNFGERLRALRQDRQMTLQQASKVTGVAQSTLSKMENNQLSPTFNLMQKLAIGLGIDMPQLFAPVK | -0.642
25 | HMSNGEWQQGSDGRWWYKFSDGTYPKNKVETIGGKKYGFDSEGWMLANTTKEFSGTTYSFGADGVATS | 0.223
26 | HMSNHYETLGVEQTASVDEIKKAYRRLSLQYHPDRNTTSDAVGKFQKINDAHEILSDKQSRTEYDMQLK | 0.0273
27 | HMSNIQLAANLQRLRKDHHFTQTQFSKKLNISRQAYSNYETGKRIPDLDIIIRIANIYHISLENLL | -0.305
28 | HMSNKYYETILDWFKSQIMSGELKEGDTIPSERELATRFGVSRVPVREALRILEYIGIVSNTADGMTVQKV | -1.72
29 | HMSNLKKRRLEKNLTLDDVGKLVGVSAATISRWESGDIENMRSDKIVKLANALEISPAVILGW | -0.0179
30 | HMSNLLKNILDVLEKEGPLKARKIALLLDSTRTTITHTTINSELYKALDLEGLTKNEQNIWSYVT | 0.145
31 | HMSNLVEVPAVIGRMKEDAITMLISAGLEPAVTYDEYPLVKENLVADQSVAPGQKVEKGSFVTITVSRS | -0.0726
32 | HMSNMESLIGREATVIEMIPAEDVGRVKIDGDEWQAVLAREDDNEPRRDIQVGEKVIIVSYDSIILTVKTK | 0.0742
33 | HMSNNENSILEKLNSFSGKKIKVSHTIGSLAARLDEYPKIKMWLYKRIRENSINEQAYKYLIFIIERKVR | -1.34
34 | HMSNPADDVVDLLRQLRLPHMRAAAPELLATAKAQRWDPAEAIRALLTEELAGRQASSINARRK | -0.477
35 | HMSNPPIRIGKKALHELLTTWLSLLSRDGVAYLVVQKNLGADSLTAWLRDQGFPSEKIASKKGFRIIEVH | -0.315
36 | HMSNRDNPVVLDFKKVKSTEQLDNILEEYIRENFEGYTVKGRMFSSDEGKFIIALALKDDDGKRALVYFDV | -1.04
37 | HMSNRIDKIKLNHWLNIRKTSLDVLNNLLSKHLNHKINFENLENLDEQAIEKISEVLSIPKNKLLINDDVP | -0.219
38 | HMSNTVEDLIDDIGTVTKDSKDKIDAARKAYDGLTEDQKKLVPDSVLKTLTDAEAAYAKLTK | 0.567
